Patent US20100015126A1, “Methods of Binding of Cross-Beta Structures By Chaperones” (priority 2006, published 2010)

Biological target: T1, human mitochondrial HSP60 (Homo sapiens, UniProt P10809)
T1 construct: Dr. W. van Eden, Utrecht University; host or cells: E. coli
Assay: ELISA: binding of HSP60 to immobilized (misfolded) protein ligands
Protocol: Recombinant human HSP60 with N-terminal His-tag was a kind gift of Dr. R. van der Zee and Prof. Dr. W. van Eden (Institute of Infectious Diseases and Immunology, Faculty of Veterinary Medicine, Utrecht University, Utrecht, The Netherlands), and was supplied in lyophilized form. The HSP60 was produced in E. coli and purified using Nickel-Sepharose. The HSP60 was lyophilized from 20-40 mM ammonium-bicarbonate solution, after purification, and stored at −20° C. The construct lacks the mitochondrial signal sequence. […] Before use, the lyophilized protein is dissolved at room temperature at 1 mg/ml in 20-40 mM NH4HCO3, resulting in a pH of 7.0. Aliquots are stored at −20° C. or −80° C. The mitochondrial HSP60 is a functional dimer of heptamers (MW(HSP60 monomer)=˜58 kDa), and is involved in multimer protein assembling and aids in transport of unfolded proteins across membranes. For the binding studies, at two occasions separate HSP60 solutions were prepared originating from the same batch of purified protein, lyophilized in separate Eppendorf cups.
Binding of chaperones to immobilized (misfolded) protein ligands was determined using an enzyme linked immuno sorbent assay (ELISA) approach. […] After 5 washes with wash buffer followed by two washes with PBS, binding of antibodies was assessed. […] Plates were read at 450 nm. […]

T1 sequence (P10809 27-573): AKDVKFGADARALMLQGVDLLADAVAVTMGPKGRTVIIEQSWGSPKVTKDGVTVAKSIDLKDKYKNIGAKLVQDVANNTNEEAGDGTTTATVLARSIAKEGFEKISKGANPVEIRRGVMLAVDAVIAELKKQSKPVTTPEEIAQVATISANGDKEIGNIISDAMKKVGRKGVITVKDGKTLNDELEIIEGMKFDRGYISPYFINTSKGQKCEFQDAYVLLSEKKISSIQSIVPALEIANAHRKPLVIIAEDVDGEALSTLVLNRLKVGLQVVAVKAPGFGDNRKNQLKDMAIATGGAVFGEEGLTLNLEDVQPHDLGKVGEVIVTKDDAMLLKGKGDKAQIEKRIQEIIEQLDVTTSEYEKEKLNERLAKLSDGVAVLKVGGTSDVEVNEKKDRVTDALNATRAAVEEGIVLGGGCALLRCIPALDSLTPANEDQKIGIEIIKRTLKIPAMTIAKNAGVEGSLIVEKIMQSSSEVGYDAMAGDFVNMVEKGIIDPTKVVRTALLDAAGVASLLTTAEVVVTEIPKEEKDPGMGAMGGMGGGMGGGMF

Binding of concentration series of HSP60 to coated ligand: has been established
B1: dOVA standard: heat-denatured chicken ovalbumin (protein)
chain: GSIGAASMEFCFDVFKELKVHHANENIFYCPIAIMSALAMVYLGAKDSTRTQINKVVRFDKLPGFGDSIEAQCGTSVNVHSSLRDILNQITKPNDVYSFSLASRLYAEERYPILPEYLQCVKELYRGGLEPINFQTAADQARELINSWVESQTNGIIRNVLQPSSVDSQTAMVLVNAIVFKGLWEKAFKDEDTQAMPFRVTEQESKPVQMMYQIGLFRVASMASEKMKILELPFASGTMSMLVLLPDEVSGLEQLESIINFEKLTEWTSSNVMEERKIKVYLPRMKMEEKYNLTSVLMAMGITDVFSSSANLSGISSAESLKISQAVHAAHAEINEAGREVVGSAEAGVDAASVSEEFRADHPFLFCIKHIATNAVLFFGRCVSP
